Measurements: paper PMC5314372

What was measured:
[1] = target: N-terminally-truncated ΦAB6 tailspike protein (residues 136-699) (bacteriophage ΦAB6); assay: AUC; sedimentation at 20,000 rpm, Beckman XL-A, An-60 Ti rotor; 25 mM Tris-HCl, 300 mM NaCl, pH 8.0; analysed with SEDFIT
[2] = target: N-terminally-truncated ΦAB6 tailspike protein (residues 136-699) (bacteriophage ΦAB6); assay: crystal structure; hanging-drop vapor diffusion at 20 °C; 1.0 M sodium malonate pH 7.0 or 0.9 M sodium citrate, 0.1 M sodium cacodylate pH 6.5; space group C2, one trimer in the asymmetric unit; free form and forms soaked with Ab-54149 polysaccharide
[3] = target: bacteriophage ΦAB6 tailspike protein (bacteriophage ΦAB6); assay: SEC; analytical gel-filtration column, single peak; calibration curve of log MW versus Ve/V0 with five protein markers
[4] = target: bacteriophage ΦAB6 tailspike protein (bacteriophage ΦAB6); assay: AUC; sedimentation at 20,000 rpm, Beckman XL-A, An-60 Ti rotor; 25 mM Tris-HCl, 300 mM NaCl, pH 8.0; analysed with SEDFIT

Substance	stoichiometry N [1]	stoichiometry N [2]	stoichiometry N [3]	stoichiometry N [4]
N-terminally-truncated ΦAB6 tailspike protein (residues 136-699) (domain or fragment)	3	3		
bacteriophage ΦAB6 tailspike protein (enzyme)			3	3
